Experiments:
Test in all cases: SPR; KD relative to WT C2;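 further: biacore SPR at 37 °C, anti-C2 mAbs captured on an anti-human IgG chip, alanine or serine C2 surface mutants tested, KD from 1:1 fit compared with wild-type C2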
human C2 H451A = biological target: T1, human C2 H451A (human, UniProt P06681 21-752)
T1 sequence: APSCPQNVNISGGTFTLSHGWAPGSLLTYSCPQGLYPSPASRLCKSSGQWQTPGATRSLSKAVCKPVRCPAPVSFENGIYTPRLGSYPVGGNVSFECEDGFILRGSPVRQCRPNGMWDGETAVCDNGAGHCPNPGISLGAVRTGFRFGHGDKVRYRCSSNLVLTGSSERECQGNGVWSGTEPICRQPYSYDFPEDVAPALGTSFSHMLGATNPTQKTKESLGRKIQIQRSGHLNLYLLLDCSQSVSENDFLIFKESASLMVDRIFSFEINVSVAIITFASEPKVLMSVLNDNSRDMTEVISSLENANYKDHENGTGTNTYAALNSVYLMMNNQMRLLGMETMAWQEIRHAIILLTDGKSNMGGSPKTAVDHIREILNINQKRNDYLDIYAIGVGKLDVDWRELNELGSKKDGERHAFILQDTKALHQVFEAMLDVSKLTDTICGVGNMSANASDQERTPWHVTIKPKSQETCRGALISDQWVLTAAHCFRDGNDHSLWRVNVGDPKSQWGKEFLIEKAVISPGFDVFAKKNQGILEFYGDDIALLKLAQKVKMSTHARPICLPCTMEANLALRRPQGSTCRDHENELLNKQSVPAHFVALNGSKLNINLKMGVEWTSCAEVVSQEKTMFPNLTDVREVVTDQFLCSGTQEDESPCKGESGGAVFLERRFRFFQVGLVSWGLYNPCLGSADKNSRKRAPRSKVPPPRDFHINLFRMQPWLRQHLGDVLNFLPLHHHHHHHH

human C2 V455A = biological target: T2, human C2 V455A (human, UniProt P06681 21-752)
T2 sequence: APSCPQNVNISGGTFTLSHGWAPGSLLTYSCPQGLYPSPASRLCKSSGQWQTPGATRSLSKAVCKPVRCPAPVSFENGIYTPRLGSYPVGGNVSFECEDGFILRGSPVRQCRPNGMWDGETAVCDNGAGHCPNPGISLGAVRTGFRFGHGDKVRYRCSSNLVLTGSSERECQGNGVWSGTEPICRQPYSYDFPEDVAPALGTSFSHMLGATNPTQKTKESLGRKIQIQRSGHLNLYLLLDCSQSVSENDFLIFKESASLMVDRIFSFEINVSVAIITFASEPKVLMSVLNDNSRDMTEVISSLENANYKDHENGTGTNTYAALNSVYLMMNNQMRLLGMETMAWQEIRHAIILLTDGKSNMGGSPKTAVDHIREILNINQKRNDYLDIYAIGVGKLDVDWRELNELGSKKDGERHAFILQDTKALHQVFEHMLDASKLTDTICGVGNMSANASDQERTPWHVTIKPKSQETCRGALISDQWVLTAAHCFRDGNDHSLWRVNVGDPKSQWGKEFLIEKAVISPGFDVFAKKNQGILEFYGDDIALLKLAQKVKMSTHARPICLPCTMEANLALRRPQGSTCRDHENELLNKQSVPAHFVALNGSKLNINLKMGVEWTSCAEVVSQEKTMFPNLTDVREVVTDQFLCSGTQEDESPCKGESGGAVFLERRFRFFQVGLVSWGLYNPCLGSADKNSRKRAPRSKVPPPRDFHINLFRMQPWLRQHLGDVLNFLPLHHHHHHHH

human C2 R688A = biological target: T3, human C2 R688A (human, UniProt P06681 21-752)
T3 sequence: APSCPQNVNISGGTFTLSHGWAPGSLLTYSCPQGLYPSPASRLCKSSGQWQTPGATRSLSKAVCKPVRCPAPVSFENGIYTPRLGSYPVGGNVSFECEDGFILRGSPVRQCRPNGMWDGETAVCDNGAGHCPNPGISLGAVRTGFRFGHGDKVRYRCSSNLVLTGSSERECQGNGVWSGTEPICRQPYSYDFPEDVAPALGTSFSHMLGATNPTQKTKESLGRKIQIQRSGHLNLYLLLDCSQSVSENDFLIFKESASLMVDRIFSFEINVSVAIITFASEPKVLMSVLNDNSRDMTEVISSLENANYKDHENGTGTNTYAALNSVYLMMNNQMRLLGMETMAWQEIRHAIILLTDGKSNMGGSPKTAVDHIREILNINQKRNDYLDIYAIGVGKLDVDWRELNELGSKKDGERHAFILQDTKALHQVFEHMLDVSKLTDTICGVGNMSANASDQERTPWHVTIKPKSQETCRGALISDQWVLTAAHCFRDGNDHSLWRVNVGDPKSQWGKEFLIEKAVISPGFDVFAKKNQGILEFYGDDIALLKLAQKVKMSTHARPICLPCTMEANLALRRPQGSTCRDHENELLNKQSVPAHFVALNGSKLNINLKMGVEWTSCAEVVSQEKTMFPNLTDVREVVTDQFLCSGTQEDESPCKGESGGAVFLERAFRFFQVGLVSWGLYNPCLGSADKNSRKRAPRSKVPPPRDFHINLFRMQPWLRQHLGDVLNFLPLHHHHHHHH

human C2 E686A = biological target: T4, human C2 E686A (human, UniProt P06681 21-752)
T4 sequence: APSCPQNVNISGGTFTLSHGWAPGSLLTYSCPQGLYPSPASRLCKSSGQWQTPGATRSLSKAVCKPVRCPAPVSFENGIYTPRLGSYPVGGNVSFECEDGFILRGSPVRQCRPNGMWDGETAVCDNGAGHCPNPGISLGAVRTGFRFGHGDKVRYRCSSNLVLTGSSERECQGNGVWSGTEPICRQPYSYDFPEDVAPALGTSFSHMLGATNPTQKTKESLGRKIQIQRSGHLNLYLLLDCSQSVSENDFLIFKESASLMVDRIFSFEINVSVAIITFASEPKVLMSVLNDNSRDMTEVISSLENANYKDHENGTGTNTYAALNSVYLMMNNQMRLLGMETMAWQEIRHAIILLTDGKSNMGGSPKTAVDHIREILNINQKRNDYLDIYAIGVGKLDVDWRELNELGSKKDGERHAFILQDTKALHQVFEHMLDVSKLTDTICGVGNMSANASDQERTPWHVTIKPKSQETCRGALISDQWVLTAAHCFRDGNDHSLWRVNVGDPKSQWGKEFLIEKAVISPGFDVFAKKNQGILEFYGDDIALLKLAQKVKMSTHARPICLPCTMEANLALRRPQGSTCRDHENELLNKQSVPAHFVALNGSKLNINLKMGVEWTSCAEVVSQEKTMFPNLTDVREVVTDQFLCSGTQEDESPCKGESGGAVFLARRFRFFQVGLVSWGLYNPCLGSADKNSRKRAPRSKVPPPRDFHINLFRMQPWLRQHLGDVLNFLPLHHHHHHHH

B1: RF16-214 (antibody, V domains shown)
VH: EVQLLESGGGLVQPGGSLRLSCAASGFTFSWYQMMWVRQAPGKGLEWVSRIYPSGGGTAYADSVKGRFTISRDNSKNTLYLQMNSLRAEDTAVYYCARDAGYGDNWGQGTLVTVSS
VL: QSALTQPPSVSVSPGQTASITCSGDKLGEKYASWYQQKAGQSPVMVIYQDRKRPSGIPERFSGSNSGNTATLTISGTQAMDEADYYCQAWDTRAVVFGGGTKLTVLG
- Fold diff (human C2 H451A): 4 fold
- Fold diff (human C2 V455A): 0 fold
- Fold diff (human C2 R688A): 3 fold
- Fold diff (human C2 E686A): 4 fold

Reference: US20220332804A1 (CSL INNOVATION, published 2022)
